Results from patent US20130171159.

Test system: T1, Twist1
T1 sequence: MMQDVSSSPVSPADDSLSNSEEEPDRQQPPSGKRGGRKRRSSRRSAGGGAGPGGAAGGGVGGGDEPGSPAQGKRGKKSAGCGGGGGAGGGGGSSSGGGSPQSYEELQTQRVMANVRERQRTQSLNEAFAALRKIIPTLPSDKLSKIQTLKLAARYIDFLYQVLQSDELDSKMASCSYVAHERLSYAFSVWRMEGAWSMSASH

Akt (protein kinase B), Akt1 and Akt2 of mouse embryonic fibroblasts
Phosphorylation of Twist1 on S42 in Akt1/2-depleted versus wild-type MEFs: Phosphorylation of Twist1 was not detected in Akt1/2-depleted MEFs under basal conditions or after insulin stimulation, but was high in stimulated wild-type MEFs
